From patent US20170267752A1 (Ablynx, published 2017)

How the values were obtained:
[1] = molecular target: membrane bound human TNF (mTNF), human TNF R77T/S78T variant on HEK293H-mTNF cells (human) (UniProt P01375); test: competition FACS on HEK293H-mTNF cells, competitor Enbrel at EC30 (0.02 nM)
[2] = molecular target: biot-hTNFα (human, UniProt P01375 77-233, biotinylated (site not stated)); test: competition ELISA according to Example 5 (assay not given)
Description: The SHIME model consists of five reactors which sequentially simulate the stomach (acid conditions and pepsin digestion), small intestine (digestive processes) and the 3 regions of the large intestine, i.e. the ascending (“A”), transverse (“T”) and descending colon (“D”) (microbial processes). […] All GI fluids were provided by ProDigest (Technologiepark 4, 9052 Zwijnaarde, Belgium). The anti-TNF Nanobodies were tested for a maximum period of 39 hours in the GI-fluids. After the incubation in the GI-fluids, stability of the Nanobodies was determined via functionality testing in a competition ELISA. The Nanobodies were tested at a fixed concentration of 100 μg/ml at 37° C. in 5 different GI fluids in the SHIMS model. At different time-points samples were taken and stored in the −20° C. with or without the addition of protease inhibitors, according to the schedule in Table 5.1. The samples were transferred to coated ELISA plates and subsequently tested in the competition ELISA. […] After blocking, a fixed concentration of 0.3 nM biot-hTNFα together with a titration series of the variants in the different GI fluids was added. Detection was performed with extravidin-HRP.

[3] = molecular target: membrane bound human TNF (mTNF), human TNF R77T/S78T variant on HEK293H-mTNF cells (human) (UniProt P01375); test: competition FACS on HEK293H-mTNF cells, competitor Enbrel at EC90 (0.2 nM)

Sequence of biot-hTNFα (P01375 77-233 limits assumed): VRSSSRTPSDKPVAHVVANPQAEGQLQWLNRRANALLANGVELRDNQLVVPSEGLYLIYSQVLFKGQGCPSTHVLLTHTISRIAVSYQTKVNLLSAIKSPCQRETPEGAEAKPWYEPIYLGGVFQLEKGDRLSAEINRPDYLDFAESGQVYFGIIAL
Sequence of membrane bound human TNF (mTNF), human TNF R77T/S78T variant on HEK293H-mTNF cells (human) (P01375 whole entry, stated change not applied): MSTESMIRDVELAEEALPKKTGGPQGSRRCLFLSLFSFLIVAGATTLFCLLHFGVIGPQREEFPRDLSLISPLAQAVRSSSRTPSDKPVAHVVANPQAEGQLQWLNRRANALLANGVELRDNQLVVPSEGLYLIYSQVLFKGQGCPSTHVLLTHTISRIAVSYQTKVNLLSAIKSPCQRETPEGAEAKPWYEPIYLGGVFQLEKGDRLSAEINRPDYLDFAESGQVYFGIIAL

B1: A016600021 (VHH)
VHH: DVQLVESGGGVVQPGGSLRLSCTASGFTFSTADMGWFRQAPGKGREFVARISGIDGTTYYDEPVKGRFTISRDNSKNTVYLQMNSLRPEDTALYYCRSPRYADQWSAYDYWGQGTLVTVSS
[1]
  IC50: 0.43 nM
[2]
  IC50: 0.67 nM
[3]
  IC50: 0.65 nM

B2: A016600046 (VHH)
VHH: DVQLVESGGGVVQPGGSLRLSCTASGFTFSTADMGWFRQAPGKGREFVARISGIDGTTYYDEPVKGRFTISRDNSKNTVYLQMNSLRPEDTALYYCRSPRYADQWSALDYWGQGTLVTVSS
notes: Y100dL substitution in CDR3; also called A016600046 100dL; A016600046 Y100dL
[2]
  IC50: 1.13 nM
  fold increase of IC50 compared to 00021: 2 to 5 fold

B3: A016600052 (VHH)
VHH: DVQLVESGGGVVQPGGSLRLSCTASGFTFSTADMGWFRQAPGKGREFVCRISGIDGTTYYDEPVKGRFTCSRDNSKNTVYLQMNSLRPEDTALYYCRSPRYADQWSALDYWGQGTLVTVSS
notes: S49C, I69C (intradomain disulfide) and Y100dL
[2]
  IC50: 3.56 nM
  fold increase of IC50 compared to 00021: 2 to 5 fold

B4: A016600038 (VHH)
VHH: DVQLVESGGGVVQPGGSLRLSCTASGFTFSTADMGWFRQAPGKGREFVARISGIDGTTYYDEPVKGRFTISRDNAKNTVYLQMNSLRPEDTALYYCRSPRYADQWSAYDYWGQGTLVTVSS
[1]
  IC50: 0.43 nM
[3]
  IC50: 0.7 nM

B5: A016600045 (VHH)
VHH: DVQLVESGGGVVQPGGSLRLSCTASGFTFSTADMGWFRQAPGKGREFVARISGIDGTTYYDEPVKGRFTISRDNSKNTVYLQMNSLRPEDTALYYCRSPRYADQWSAHDYWGQGTLVTVSS
[1]
  IC50: 0.54 nM
[3]
  IC50: 0.76 nM
